How the values were obtained:
[1] = test system: 22Rv1 orthotopic tumors; assay: OTL78 imaging of orthotopic prostate tumors, AMI image system; format: in vivo, SCID mice; details: 10 nmol, 2 h
Procedure: For orthotopic tumors, 2×10^5 22Rv1 cells/mouse in 10% high concentrated (HC) matrigel with RPMI1640 medium were surgically implanted in the prostate of seven-week-old male SCID mice. Briefly, seven-week-old male SCID mice were given 1-5% isoflurane for anesthesia and subcutaneous injection of 5 mg/kg meloxicam preoperatively for analgesia. The mice were placed dorsal side up and washed above the prostate with a chlorhexidine scrub to ensure a sterile area for incision. After an insertion was made using scalpel through the skin, the peritoneal lining was lifted to make a small incision using a scissor and widened using forceps. Dorsal lobes were exteriorized and gently stabilized with a wet (PBS) cotton swab. 22Rv1 cells (in 10 μL of 10% HC-matrigel) were injected the prostate using a 28-gage needle. After placing the prostate back into the peritoneum, the abdominal wall was sutured, the body wall was closed using 3-0 or 4-0 vicryl and the skin was closed using staples. Animals were monitored until use them for the studies. After one month, the animals were administered with OTL78 (10 nmol in 100 μL saline per mouse), euthanized after 2 h by CO2 asphyxiation, and imaged using AMI image system.

[2] = target: T1, PSMA on 22Rv1 cells (Homo sapiens, UniProt Q04609); assay: OTL78 relative affinity (IC50) by competition with DUPA-FITC; format: binding; details: 100 nM DUPA-FITC, 30 min at 4° C., flow cytometer; read-out: IC50 competing with DUPA-FITC
T1 construct: host or cells: 22Rv1 human prostate cancer cells
Procedure: In vitro binding: For OTL78 relative affinity (IC50), 22Rv1 or PC3 cells were plated into a T75 flask and allowed to form a monolayer over 48 h. After trypsin digestion, released cells were transferred into centrifuge tubes (1×10^6 cells/tube) and centrifuged. Spent medium in each tube was replaced with 100 nM DUPA-FITC in the presence of increasing concentration (0.001 nM-10 μM) of OTL78 in fresh medium (0.5 mL). After incubating for 30 min at 4° C., cells were rinsed with culture medium (2×1.0 mL) and saline (1×1.0 mL) to remove any unbound DUPA-FITC. Cells were then re-suspended in saline (0.5 mL) and cell bound fluorescence was quantified using a flow cytometer. The relative affinities were calculated using a plot of percent cell bound fluorescence versus the log concentration of OTL78 using GraphPad Prism 6.

[3] = Safety study of OTL78 (body weight, histopathology, clinical pathology)
Procedure: Safety Study: Seven-week-old healthy male Balb/c (5 mice/group) were administered with 6 μmol of freshly prepared OTL78 or saline dissolved in 100 μL of saline via tail vein injection on day zero. Body weights and clinical observations were monitored prior to dosing and daily thereafter from day zero to 14.
For immunohistopathology (IHC) studies, the animals were euthanized by CO2 asphyxiation on the day 14 and selected tissues (brain, heart, lung, liver, spleen, kidney, stomach, small intestine, large intestine, muscle, and skin) were collected into vials containing 4% formalin. Formalin fixed tissues were sectioned into 10 μm thick sections and mounted onto Superfrost Plus™ slides (Fisher Scientific, Pittsburgh Pa.). After staining the slides with H&E, IHC analysis of the tissues was conducted to determine to the toxicity of OTL78.
For clinical pathology studies, the animals were euthanized by CO2 asphyxiation on the day 14 and blood was collected to heparin by cardiac punch and blood work analysis was conducted at Purdue clinical pathology lab.

[4] = test system: PC3 tumor xenografts; assay: OTL78 whole body imaging and tissue biodistribution, subcutaneous tumor; format: in vivo, mice; details: 10 nmol, 2 h
Procedure: (§1) Whole body Imaging & Tissue biodistribution: Seven-week-old male nu/nu mice were inoculated subcutaneously with 5.0×106 22Rv1, LNCaP, PC3 or A549 cells/mouse in 50% high concentrated matrigel with RPMI1640 medium on the shoulder. Growth of the tumors was measured in perpendicular directions every 2 days using a caliper (body weights were monitored on the same schedule), and the volumes of the tumors were calculated as 0.5×L×W2 (L=longest axis and W=axis perpendicular to L in millimeters). Once tumors reached approximately 300-400 mm3 in volume, animals (3-5 mice/group) were intravenously injected with appropriate dose of OTL78 in saline.
(§2) For whole body imaging and biodistribution studies, animals were euthanized after 2 h of administration of OTL78 by CO2 asphyxiation. For time dependent studies, animals were imaged under anesthesia using isoflurane. Imaging experiments were then performed using IVIS or AMI image systems. Following whole body imaging, animals were dissected and selected tissues were analyzed for fluorescence activity using IVIS or AMI image system and ROI of the tissues were calculated using Living Image 4.0 software or AMIView Image Analysis Software.

[5] = test system: LNCaP tumor xenografts; assay: as above; format: in vivo, mice; details: 10 nmol, 2 h
Procedure: as §1, §2

[6] = Excitation and emission spectra by fluorometer; format: physicochemical; details: same concentration, 1 μM in 1 mL of PBS
Procedure: FIG. 38B—Excitation (Ex) & emission (Em) spectra of OTL78 (1 μM) and S0456 (1 μM) in 1 mL of PBS obtained using fluorometer.
Results and Conclusions: In an effort to improve limitations in current clinical practice of radical prostatectomy and tumor-specific imaging agents that are in the preclinical stages, OTL78 was assembled using: (i) a high affinity PSMA-targeting ligand (coined DUPA), (ii) a rationally designed 14 atoms long polyethylene glycol-dipeptide linker, and (iii) an inexpensive NIR dye ([…]) named S0456 (see FIG. 38A for the chemical structure). The dipeptide consisting of phenylalanine-tyrosine was designed to fit to the contours and chemistry of the tunnel accessing the binding pocket of the PSMA protein.

[7] = test system: 22Rv1 tumor xenografts
Procedure: as §1, §2

[8] = test system: A549 tumor xenografts; assay: OTL78 whole body imaging and tissue biodistribution, subcutaneous tumor; format: in vivo, mice; details: 10 nmol, 2 h
Procedure: as §1, §2

[9] = test system: basophils; assay: Basophil activation test (Flow CAST) in human blood samples; format: cell-based
Procedure: Tolerability Studies: The blood samples were collected into hirudin tubes and used within an hour of collection. For each donor, 4 different tubes were prepared for allergen, positive controls, and negative control. Samples were analyzed using Flow CAST® high sensitivity Basophil Activation Test (BAT). Briefly, stimulation buffer (100 μL, background) or anti-FcεER antibody (100 μL) or fMLP (100 μL) or OTL78 (75 μM in 100 μL of saline) was added to tubes containing stimulation buffer (200 μL). 100 μL of blood was added to each tube and mixed gently. After adding staining reagent (40 μL) containing anti-CD63-CD203c-PE-DY647 and anti-CCR3-PE, each tube was mixed gently and incubated for 15 minutes at 37° C. Lysing reagent (2 mL) was added to each tube, mixed gently, incubated for 5-10 minutes at room temperature, and centrifuged for 5 minutes at 500×g. The supernatant was discarded and the cells were re-suspended in wash buffer (900 μL) and analyzed using flow cytometry. CD63-CD203c-PE-DY647+/CCR3-PE+ cell population considered as the activated basophils.

[10] = target: T1, PSMA on 22Rv1 cells; assay: OTL78 binding affinity (Kd), cell bound fluorescence by fluorometer; details: 30 min at 4° C.
Procedure: For OTL78 binding affinity, 22Rv1 or PC3 cells were seeded into a T75 flask and allowed to form a monolayer over 48 h. After trypsin digestion, cells were transferred into centrifuge tubes (1×10^6 cells/tube) and centrifuged. The medium was replaced with fresh medium containing increasing concentration of OTL78 and incubated for 30 min at 4° C. After rinsing with fresh medium (2×1.0 mL) and saline (1×1.0 mL), cells were lysed with 1% SDS with in saline (1.0 mL) and cell bound fluorescence was analyzed using a fluorometer (Cary Eclipse, Agilent Technologies). The binding affinity (Kd) was calculated using a plot of percent cell bound fluorescence versus concentration using GraphPad Prism 6.

[11] = 0.3-120 nmol/mouse tested, 2 hour time point, IVIS

T1 sequence (Q04609 whole entry): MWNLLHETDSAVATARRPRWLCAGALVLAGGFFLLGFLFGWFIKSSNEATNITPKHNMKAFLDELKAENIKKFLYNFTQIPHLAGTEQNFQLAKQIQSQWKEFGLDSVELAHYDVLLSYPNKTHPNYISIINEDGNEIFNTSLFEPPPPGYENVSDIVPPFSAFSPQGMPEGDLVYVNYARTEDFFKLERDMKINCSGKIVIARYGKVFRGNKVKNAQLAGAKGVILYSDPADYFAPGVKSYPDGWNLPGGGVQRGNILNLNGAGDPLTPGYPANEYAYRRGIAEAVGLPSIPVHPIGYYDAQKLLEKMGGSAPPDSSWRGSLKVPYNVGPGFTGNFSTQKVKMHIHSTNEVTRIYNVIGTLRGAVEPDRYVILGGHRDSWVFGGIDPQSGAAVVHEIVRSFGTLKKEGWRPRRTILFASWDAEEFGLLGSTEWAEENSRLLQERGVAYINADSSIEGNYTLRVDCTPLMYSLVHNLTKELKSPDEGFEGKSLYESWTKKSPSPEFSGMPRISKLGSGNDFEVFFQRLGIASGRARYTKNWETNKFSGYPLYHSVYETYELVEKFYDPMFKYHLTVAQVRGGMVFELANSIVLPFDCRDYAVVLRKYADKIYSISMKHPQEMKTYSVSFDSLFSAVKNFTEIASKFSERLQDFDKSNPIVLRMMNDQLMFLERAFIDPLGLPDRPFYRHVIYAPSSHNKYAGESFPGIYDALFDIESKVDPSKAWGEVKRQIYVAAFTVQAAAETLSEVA

SMILES: CC1(C)C(/C=C/C2=C(Oc3ccc(C[C@H](NC(=O)[C@H](Cc4ccccc4)NC(=O)CCOCCOCCNC(=O)CC[C@H](NC(=O)N[C@@H](CCC(=O)O)C(=O)O)C(=O)O)C(=O)O)cc3)C(=C/C=C3/N(CCCCS(=O)(=O)O)c4ccc(S(=O)(=O)O)cc4C3(C)C)/CCC2)=[N+](CCCCS(=O)(=O)[O-])c2ccc(S(=O)(=O)O)cc21 [OTL78]
- accumulation in orthotopic prostate tumors [1]: mainly accumulated in prostate tumors with no fluorescence observed in other tissues except kidneys
- detection of local regional metastasis in seminal vesicles ([1]; in the presence of primary tumor): able to detect
- IC50 [2]: 7 nM
- body weight change over the course of the study ([3]; 6 μmol/mouse (600× of normal dose), day zero to 14): < 5 % increase
- clinical pathology analysis on blood samples ([3]; 6 μmol/mouse, day 14): No noticeable toxicities
- pathological changes in H&E staining of tissues ([3]; 6 μmol/mouse, day 14): no obvious pathological changers
- fluorescence intensity of PC3 tumors compared to 22Rv1 tumors [4]: ~6 folds less
- accumulation in LNCaP tumors [5]: accumulated predominantly
- enhancement of the fluorescence of S0456 [6]: ≥ 2
- accumulation in 22Rv1 tumors ([7]; 10 nmol, 2 h): accumulated predominantly
- dose of best TBR [7, 11]: 3-10 nmol/mouse
- dose range providing excellent TBR [7, 11]: 1-30 nmol per mouse
- time for skin uptake to clear ([7]; mouse, in vivo): 4 to 5 h
- fluorescence intensity of A549 tumors compared to 22Rv1 tumors [8]: ~6 folds less
- stimulated index ([9]; FIG. 47E, ≥2 considered positive response): 1
- Percent of basophile activation, Avg ([9]; average of 3 healthy subjects): 2.8%
- Percent of basophile activation, Subject 1 ([9]; healthy subjects, OTL78 75 μM): 2.64%
- Percent of basophile activation, Subject 2 ([9]; healthy subjects, OTL78 75 μM): 2.67%
- Percent of basophile activation, Subject 3 ([9]; healthy subjects, OTL78 75 μM): 3.14%
- SI = Avg/background ([9]; stimulation index, ≥2 considered positive response): 1.1
- Kd [10]: 4.7 nM

Source: patent US11484607B2, “PSMA-targeted NIR dyes and their uses” (On Target Laboratories, LLC, priority 2015, dated 2022)
